Assay results: patent US20250352661A1 (MYTHIC THERAPEUTICS, published 2025)
Numbering of substitutions follows the chain as printed. In names and notes the source's numbering stands.

T1: LRRC15 on LRRC15 positive cell lines SAOS2 and G292 (UniProt Q8TF66 22-581, limits assumed)
T1 construct: whole, on cells
T1 sequence (looked up): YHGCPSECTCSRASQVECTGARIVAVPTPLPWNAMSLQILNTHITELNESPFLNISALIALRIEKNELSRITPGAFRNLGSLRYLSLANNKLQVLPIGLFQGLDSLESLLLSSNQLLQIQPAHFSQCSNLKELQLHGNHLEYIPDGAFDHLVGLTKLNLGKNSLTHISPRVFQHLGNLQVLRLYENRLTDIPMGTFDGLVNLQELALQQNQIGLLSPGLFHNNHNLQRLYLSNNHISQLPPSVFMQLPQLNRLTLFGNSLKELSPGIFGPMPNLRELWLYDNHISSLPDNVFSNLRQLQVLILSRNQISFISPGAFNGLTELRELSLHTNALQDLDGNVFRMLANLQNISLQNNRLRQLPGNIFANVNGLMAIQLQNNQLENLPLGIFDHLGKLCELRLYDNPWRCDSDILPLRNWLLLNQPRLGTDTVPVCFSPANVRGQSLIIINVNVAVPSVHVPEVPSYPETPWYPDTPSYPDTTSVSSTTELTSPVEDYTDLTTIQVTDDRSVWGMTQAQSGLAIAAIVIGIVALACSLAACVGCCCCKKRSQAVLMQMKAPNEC

T2: Human LRRC15 Protein, His Tag (Acro Biosystems) (human, UniProt Q8TF66 22-538, limits assumed)
T2 construct: Bought protein with His tag
T2 sequence (looked up): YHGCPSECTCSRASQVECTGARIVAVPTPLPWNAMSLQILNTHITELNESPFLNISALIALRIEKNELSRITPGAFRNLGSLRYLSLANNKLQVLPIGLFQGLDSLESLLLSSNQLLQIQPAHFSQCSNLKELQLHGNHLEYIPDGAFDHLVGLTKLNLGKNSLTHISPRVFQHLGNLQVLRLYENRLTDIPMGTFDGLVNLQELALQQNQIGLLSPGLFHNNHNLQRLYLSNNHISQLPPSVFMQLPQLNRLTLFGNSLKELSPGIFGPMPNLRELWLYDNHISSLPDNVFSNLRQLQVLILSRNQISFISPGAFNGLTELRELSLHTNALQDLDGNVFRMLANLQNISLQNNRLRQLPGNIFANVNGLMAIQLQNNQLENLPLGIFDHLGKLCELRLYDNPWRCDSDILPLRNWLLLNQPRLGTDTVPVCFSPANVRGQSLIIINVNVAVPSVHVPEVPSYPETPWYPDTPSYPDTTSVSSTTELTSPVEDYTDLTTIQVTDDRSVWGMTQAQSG

T3: Human LRRC15 Protein, His Tag, Acro Biosystems (human, UniProt Q8TF66 22-538, limits assumed)
T3 construct: not shown: His tag
T3 sequence (looked up): T2 sequence (looked up)

B1: MYT9776 (antibody, V domains shown)
VH: EVQLVESGGGLVQPGGSLRLSCTASGFSFSGHYWICWVRQAPGKGLEWVGCIHGGSHDITYYASWAKGRFTISRDTSKNTVYLQKTSLRAEDTAVYYCASDTSYTAYGNFYFNLWGQGTLVTVSS
VL: EIVMTQSPSPLSASVGDRVIITCQSSQSVLNNNWLAWYQQKPGKAPKLLIYDASSLASGVPSRFSGSGSGAEFTLTISSLQPDDFATYYCQGEFSCGSADCNAFGQGTKLEIK
notes: LC EIK); also called hu24D9 HC Dev Combos, +LC FR4 EIK
B2: MYT8094 (antibody, IgG1, V domains shown)
VH: EVQLVESGGGLVQPGGSLRLSCTASGFSFSSSHWICWVRQAPGKGLEWVGCIYAGSIGSTYYASWAKGRFTISRDTSKNTVYLQMNSLRAEDTAVYYCARAPNDIYNYYFNLWGQGTLVTVSS
VL: EIVMTQSPSTLSASVGDRVIITCQASENIYNYLAWYQQKPGKAPKLLIYYASTLASGVPSRFSGSGSGAEFTLTISSLQPDDFATYYCQSGYVSKSSTFGQGTKLTVL
notes: Humanized 29F1; also called hu29F1 Parental; hu29F1
B3: MYT9521 (antibody, V domains shown)
VH: B2 VH
VL: B2 VL with T53D
notes: LC descriptor T66D; also called hu29F1 LC Asp Var
B4: MYT7912 (antibody, V domains shown)
VH: QQQLVESGGGLVKPGASLTLTCKASGFSFSGSYWICWVRQAPGKGLEWIGCINGGSLDITYYASWAKGRFTISKASSTTVTLQKTSLTAADTATYFCASHTSYTAYGNFYFNLWGPGTLVTVSS
VL: AQVLTQTASPVSAAVGGTVTINCQSSQSVLNNNWLAWYQQKPGQPPKLLIYDASSLASGVPSRFKGSGSGTQFTLTISDLESDDAATYYCQGEFSCGSADCNAFGGGTEVVVKG
notes: rabbit 24D9 VH D100H; chimeric, human constant regions
B5: MYT7920 (antibody, V domains shown)
VH: B4 VH with H100D, N108H
VL: B4 VL
notes: rabbit 24D9 VH N108H; chimeric, human constant regions
B6: MYT7917 (antibody, V domains shown)
VH: B4 VH with H100D, A105H
VL: B4 VL
notes: rabbit 24D9 VH A105H; chimeric, human constant regions
B7: MYT7919 (antibody, V domains shown)
VH: B4 VH with H100D, G107H
VL: B4 VL
notes: rabbit 24D9 VH G107H; chimeric, human constant regions
B8: MYT7924 (antibody, V domains shown)
VH: B4 VH with H100D, N112H
VL: B4 VL
notes: rabbit 24D9 VH N112H; chimeric, human constant regions
B9: MYT7918 (antibody, V domains shown)
VH: B4 VH with H100D, Y106H
VL: B4 VL
notes: rabbit 24D9 VH Y106H; chimeric, human constant regions
B10: MYT7915 (antibody, V domains shown)
VH: B4 VH with H100D, Y103H
VL: B4 VL
notes: rabbit 24D9 VH Y103H; chimeric, human constant regions
B11: MYT7925 (antibody, V domains shown)
VH: B4 VH with H100D, L113H
VL: B4 VL
notes: rabbit 24D9 VH L113H; chimeric, human constant regions
B12: MYT7922 (antibody, V domains shown)
VH: B4 VH with H100D, Y110H
VL: B4 VL
notes: rabbit 24D9 VH Y110H; chimeric, human constant regions
B13: MYT7916 (antibody, V domains shown)
VH: B4 VH with H100D, T104H
VL: B4 VL
notes: rabbit 24D9 VH T104H; chimeric, human constant regions
B14: MYT7914 (antibody, V domains shown)
VH: B4 VH with H100D, S102H
VL: B4 VL
notes: rabbit 24D9 VH S102H; chimeric, human constant regions
B15: MYT7923 (antibody, V domains shown)
VH: B4 VH with H100D, F111H
VL: B4 VL
notes: rabbit 24D9 VH F111H; chimeric, human constant regions
B16: MYT7913 (antibody, V domains shown)
VH: B4 VH with H100D, T101H
VL: B4 VL
notes: rabbit 24D9 VH T101H; chimeric, human constant regions
B17: MYT7921 (antibody, V domains shown)
VH: B4 VH with H100D, F109H
VL: B4 VL
notes: rabbit 24D9 VH F109H; chimeric, human constant regions
B18: MYT9516 (antibody, V domains shown)
VH: B2 VH
VL: B2 VL with L33D
notes: also called hu29F1 VL L33D
B19: MYT9520 (antibody, V domains shown)
VH: B2 VH
VL: B2 VL with S52D
notes: Humanized 29F1 with VL S52D; captured by anti-human Fc sensor
B20: MYT9519 (antibody, V domains shown)
VH: B2 VH
VL: B2 VL with A51D
notes: also called hu29F1 VL A51D
B21: MYT9522 (antibody, V domains shown)
VH: B2 VH
VL: B2 VL with L54D
notes: Humanized 29F1 with VL L54D; captured by anti-human Fc sensor
B22: MYT9526 (antibody, V domains shown)
VH: B2 VH
VL: B2 VL with S90D
notes: also called hu29F1 VL S90D
B23: MYT9525 (antibody, V domains shown)
VH: B2 VH
VL: B2 VL with Q89D
notes: also called hu29F1 VL Q89D
B24: MYT9533 (antibody, V domains shown)
VH: B2 VH
VL: B2 VL with S97D
notes: also called hu29F1 VL S97D
B25: MYT9530 (antibody, V domains shown)
VH: B2 VH
VL: B2 VL with S94D
notes: Humanized 29F1 with VL S94D; captured by anti-human Fc sensor
B26: MYT9524 (antibody, V domains shown)
VH: B2 VH
VL: B2 VL with S56D
notes: Humanized 29F1 with VL S56D; captured by anti-human Fc sensor
B27: MYT9532 (antibody, V domains shown)
VH: B2 VH
VL: B2 VL with S96D
notes: also called hu29F1 VL S96D

target: T1, LRRC15 on LRRC15 positive cell lines …; assay: cell binding on SAOS2 cells (LRRC15 positive), pH 7.4; parameters: unit not given here

| Binder | Affinity |
| --- | --- |
| B1 | 7.32 |
| B2 | 1.71 |
| B3 | 1.58 |

target: T2, Human LRRC15 Protein, His Tag (Acro …); assay: BLI; dissociation pH 7.4 black, pH 5.4 grey [2/2); D00014 FIG. 2B (2/2]

| Binder | binding result |
| --- | --- |
| B4 | no binding (tested: 50 nM LRRC15) |
| B5 | no binding (tested: 50 nM LRRC15) |
| B6 | binds |
| B7 | no binding (tested: 50 nM LRRC15) |
| B8 | binds |
| B9 | binds |
| B10 | no binding (tested: 50 nM LRRC15) |
| B11 | binds |
| B12 | binds |
| B13 | binds |
| B14 | binds |
| B15 | binds |
| B16 | binds |
| B17 | no binding (tested: 50 nM LRRC15) |

target: T3, Human LRRC15 Protein, His Tag, Acro …; assay: BLI; dissociation pH 7.4 black, pH 5.4 grey [D00022 FIG. 5B]
Procedure: The resulting diluted supernatants were then captured on an anti-human Fc sensor (Forte Bio). A baseline was established using 1×PBST (50 mM Potassium Phosphate Buffer+150 mM NaCl+0.05% Tween 20) pH 7.4, and the […] was associated with 50 nM of LRRC15 (Human LRRC15 Protein, His Tag, Acro Biosystems) in 1×PBST pH 7.4 for 120 sec to generate an association curve. In the dissociation phase, the antibody-antigen complex on the sensor was exposed to 1×PBST pH 7.4 or pH 5.4, for 300 sec. Association and dissociation phase curves were examined for the starting ABPC antibody (with no substitutions) and each corresponding antibody variant at pH 5.4 and pH 7.4 to inform on two criteria: a) enhanced dissociation (i.e., higher koff values) at pH 5.4 due to histidine substitution compared to the starting ABPC, (with no substitutions), and b) reduced dissociation at pH 7.4 (i.e., lower koff values) compared to pH 5.4 in the antibody variant itself and with the starting ABPC (with no substitutions).
Briefly, CDRs in the 15G7 light chain were identified using the methods described in Example 9, and for each CDR, residues falling under either or both Kabat and IMGT CDR definitions were called as CDR residues. To generate pH-dependent sequence variants, individual amino acid residues within the light chain CDRs were systematically substituted with a histidine, one at a time (rabbit, MYT6122-6151). Desirable mutations were transferred to a humanized framework MYT8413-8487). After allowing for four days of protein expression, cell culture supernatants were collected, quantified by SDS-PAGE analysis, and the pH dependence of the variant was evaluated using biolayer interferometry (BLI) on an Octet RED 96e instrument (as described in Example 9). […]

| Binder | binding result |
| --- | --- |
| B18 | binds |
| B19 | binds |
| B20 | binds |
| B21 | binds |
| B22 | binds |
| B23 | binds |
| B24 | binds |
| B25 | binds |
| B26 | binds |
| B27 | binds |
